In patent publication US20140288277:

How the values were obtained:
[1] = test system: Fab16 (anti-FNIII, YSGR Min clone 16) (synthetic); test: filter; conditions: filter binding / dot blot assay
[2] = test system: Fab11 (anti-P4-P6, YSGR Min clone 11) (synthetic); test: filter; conditions: filter binding / dot blot assay
[3] = test system: Fab8 (anti-P4-P6, YSGR Min clone 8) (synthetic); test: FP; conditions: filter binding / dot blot assay
[4] = test system: Fab29 (anti-VCIII, YSGR Min clone 29) (synthetic); test: filter; conditions: filter binding / dot blot assay; Example 2 names the V. cholerae target VCLD1
[5] = test system: Fab30 (anti-VCIII, YSGR Min clone 30) (synthetic); test: filter; conditions: filter binding / dot blot assay; Example 2 names the V. cholerae target VCLD1
[6] = test system: T1, Fab7 (anti-tRNAiMet) (synthetic); test: filter; conditions: soluble Fab; discrete complex also in native gel
T1 sequence: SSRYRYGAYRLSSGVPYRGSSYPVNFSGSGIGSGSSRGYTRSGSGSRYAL

[7] = test system: Fab1 (anti-tRNAiMet, YSGRX clone 1), phage displayed (synthetic); test: competition; conditions: competitive phage ELISA; selection RNA carried a 29 nt 3' tag

Question: How did the Kd [1] turn out when FNIII glycine riboswitch was run?
Answer: 160 nM

Question: What does the source list for “P4-P6 domain of Tetrahymena group I intron”?
Answer: Kd [2]: 20 nM; Kd [3]: 53 nM

Question: With VCIII glycine riboswitch as the substance, how does the Kd [4] read?
Answer: 38 nM

Question: What about the Kd [5] of the same substance?
Answer: 22 nM

Question: What does the source list for human initiator tRNAiMet transcript?
Answer: Kd [6]: 59 nM; Kd [7]: 53 nM
